These results are taken from US20210032308A1 (published 2021).

In the assay the target is T1, recombinant human CD2 (biotinylated) (human, UniProt P06729 25-209, biotinylated (site not stated)).
T1 construct: also called hCD2-biotin; human recombinant CD2
T1 sequence: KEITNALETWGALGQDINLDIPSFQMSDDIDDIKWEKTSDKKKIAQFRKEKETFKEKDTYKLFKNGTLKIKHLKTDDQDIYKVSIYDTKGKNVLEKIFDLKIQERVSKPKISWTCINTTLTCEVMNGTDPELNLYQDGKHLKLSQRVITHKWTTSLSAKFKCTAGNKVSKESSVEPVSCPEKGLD
Description: flow cytometry on LFA3-displaying yeast.

B1: N-terminal Ig-domain of human LFA3 (Residues 1-93) displayed on the surface of S. cerevisiae (ligand, not shown: small tags and cut ends; large carriers)
chain: FSQQIYGVVYGNVTFHVPSNVPLKEVLWKKQKDKVAELENSEFRAFSSFKNRVYLDTVSGSLTIYNLTSSDEDEYEMESPNITDTMKFFLYVL
Regarding B1, the binding result was “binds”.
